Laboratory results from patent US20040214757.

Columns and labels:
Assay in all cases: EMSA
[1] = target: Oct-2 truncated at StuI (cDNA 655-1443) (Homo sapiens, UniProt P09086 SEQ:199-461)
Method: (§1) The polypeptides translated in vitro from these RNAs were tested for specific DNA binding by addition of the total translation mix to the DNA-protein gel assay.

[2] = target: T1, Oct-2 truncated at PstI (cDNA 655-1134) (Homo sapiens, UniProt P09086 SEQ:199-358)
T1 sequence: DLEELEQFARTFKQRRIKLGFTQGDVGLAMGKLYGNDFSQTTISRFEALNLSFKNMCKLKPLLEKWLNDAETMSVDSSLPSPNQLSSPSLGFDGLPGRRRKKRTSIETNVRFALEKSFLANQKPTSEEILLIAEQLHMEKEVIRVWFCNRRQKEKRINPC
Method: as §1

[3] = target: Oct-2 (pBS-ATG-oct-2, cDNA 655-1710) (Homo sapiens, UniProt P09086 SEQ:199-466)
Method: as §1

Measured: binding result

B1: OCTA octanucleotide probe (dsDNA)
DNA 1: ATGCAAAT
DNA 2: ATTTGCAT
binds: all assays above
